US20040214993A1

Tests used:
[1] = biological target: TNF receptors on WEHI-164 cells (mouse); assay: radioreceptor assay, cold TNF 1,000 ng/tube
[2] = biological target: TNF receptors on WEHI-164 cells (mouse); assay: radioreceptor assay, cold TNF 100 ng/tube
[3] = biological target: TNF receptors on WEHI-164 cells (mouse); assay: radioreceptor assay, cold TNF 5,000 ng/tube
[4] = biological target: TNF receptors on WEHI-164 cells (mouse); assay: radioreceptor assay, cold TNF 10,000 ng/tube
[5] = biological target: TNF receptors on WEHI-164 cells (mouse); assay: radioreceptor assay, cold TNF 1 ng/tube
[6] = biological target: TNF receptors on WEHI-164 cells (mouse); assay: radioreceptor assay, cold TNF 10 ng/tube
[7] = biological target: TNF receptors on WEHI-164 cells (mouse); assay: radioreceptor assay, cold TNF 500 ng/tube
[8] = biological target: TNF receptors on WEHI-164 cells (mouse); assay: radioreceptor assay, cold TNF 0 ng/tube

TNF receptors on WEHI-164 cells (mouse), sequence (P25118 30-454): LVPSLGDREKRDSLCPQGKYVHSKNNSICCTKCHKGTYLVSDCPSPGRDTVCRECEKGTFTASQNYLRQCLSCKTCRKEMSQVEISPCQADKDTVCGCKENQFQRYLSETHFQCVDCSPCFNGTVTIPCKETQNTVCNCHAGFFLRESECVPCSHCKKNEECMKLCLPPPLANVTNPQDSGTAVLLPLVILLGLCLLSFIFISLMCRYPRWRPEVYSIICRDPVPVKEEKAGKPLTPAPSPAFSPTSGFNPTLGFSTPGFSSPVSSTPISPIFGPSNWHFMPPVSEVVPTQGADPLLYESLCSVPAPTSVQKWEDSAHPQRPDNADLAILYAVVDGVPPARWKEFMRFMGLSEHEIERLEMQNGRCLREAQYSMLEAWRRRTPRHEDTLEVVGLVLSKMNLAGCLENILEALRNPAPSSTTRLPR

Substance: human recombinant TNF alpha (from UniProt P01375 1-233) (ligand)
- % SPECIFIC BINDING (of 125I TNF to WEHI-164 cells) [1]: 0%
- % SPECIFIC BINDING (of 125I TNF to WEHI-164 cells) [2]: 11%
- % SPECIFIC BINDING (of 125I TNF to WEHI-164 cells) [3]: 0%
- % SPECIFIC BINDING (of 125I TNF to WEHI-164 cells) [4]: 0%
- % SPECIFIC BINDING (of 125I TNF to WEHI-164 cells) [5]: 108%
- % SPECIFIC BINDING (of 125I TNF to WEHI-164 cells) [6]: 64%
- % SPECIFIC BINDING (of 125I TNF to WEHI-164 cells) [7]: 10%
- % SPECIFIC BINDING (of 125I TNF to WEHI-164 cells) [8]: 100%
